Here are results for 7 molecules from patent US20200283519A1 (IMCHECK THERAPEUTICS, published 2020).

In assay [1] the target is T1, human BTN2A2 expressed on HEK293F cells transfected with BTN2A2-Flag plasmid (human, UniProt Q8WVV5 33-523).
T1 construct: HEK293F cells here are not knocked out for endogenous BTN2/BTN3; also called HEK-BTN2 cells; not shown: Flag tag
T1 sequence: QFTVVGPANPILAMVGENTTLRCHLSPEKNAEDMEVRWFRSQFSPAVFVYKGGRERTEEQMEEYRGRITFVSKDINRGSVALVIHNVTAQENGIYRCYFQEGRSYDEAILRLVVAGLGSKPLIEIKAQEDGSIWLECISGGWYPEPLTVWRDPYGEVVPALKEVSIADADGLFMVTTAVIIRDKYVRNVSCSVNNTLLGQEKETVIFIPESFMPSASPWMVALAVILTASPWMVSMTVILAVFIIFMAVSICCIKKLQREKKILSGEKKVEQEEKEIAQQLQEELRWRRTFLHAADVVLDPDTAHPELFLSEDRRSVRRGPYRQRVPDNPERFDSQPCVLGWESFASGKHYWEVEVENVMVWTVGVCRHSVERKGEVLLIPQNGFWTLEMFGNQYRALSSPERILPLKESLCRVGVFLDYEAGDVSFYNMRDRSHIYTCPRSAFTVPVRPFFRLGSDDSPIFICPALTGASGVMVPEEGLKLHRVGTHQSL
Briefly: flow cytometry on HEK-BTN2 cells (summary table, repeats the 5th table).

The target of assay [2] is T2, human BTN2A1 CFP(Nter)-fusion protein expressed on 293F BTN3/BTN2 KO cells (human, UniProt Q7KYR7 29-527).
T2 construct: also called pcDNA3-Zeo-BTN2A1-CFP; not shown: CFP fused at the N-terminus (CFP(Nter)-fusion)
T2 sequence: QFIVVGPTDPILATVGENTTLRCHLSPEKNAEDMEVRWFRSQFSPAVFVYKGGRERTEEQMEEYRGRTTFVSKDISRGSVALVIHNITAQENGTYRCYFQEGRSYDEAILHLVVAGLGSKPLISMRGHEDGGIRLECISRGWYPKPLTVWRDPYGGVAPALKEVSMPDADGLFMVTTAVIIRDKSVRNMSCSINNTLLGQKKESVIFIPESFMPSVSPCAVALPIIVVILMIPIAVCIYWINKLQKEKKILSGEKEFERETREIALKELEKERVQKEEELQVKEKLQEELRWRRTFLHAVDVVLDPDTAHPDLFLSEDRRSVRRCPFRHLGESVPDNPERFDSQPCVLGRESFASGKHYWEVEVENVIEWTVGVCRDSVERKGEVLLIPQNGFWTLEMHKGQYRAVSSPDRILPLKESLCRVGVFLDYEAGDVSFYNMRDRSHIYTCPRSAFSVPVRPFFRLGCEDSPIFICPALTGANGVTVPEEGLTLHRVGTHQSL
The assay can be described thus: flow cytometry on BTN2A1-transfected 293F BTN3/BTN2 KO cells (summary table, repeats the 7th table). Here is the method:
(§1) HEK-293F cells bearing CRISPR-Cas9-mediated deletions of all isoforms of BTN3 and BTN2 (293F BTN3/BTN2 KO) were generated (data not shown), cultured in DMEM (Life Technologies) 10% fetal bovine serum (FBS, Gibco) 1 mM sodium pyruvate (Thermofisher scientific), and transfected independently with pcDNA3-Zeo-BTN2A1-CFP or pcDNA3-Zeo-BTN2A2-CFP, which encode BTN2A1 and BTN2A2 CFP(Nter)-fusion proteins, using Lipofectamine 2000 reagent (Thermofisher scientific) according to manufacturer's instructions.
(§2) Twenty-four hours after transfection, cells (5×10⁴/sample) were collected and stained in duplicate with the indicated concentrations (2-fold dilutions starting from 20 μg/mL to 64 pg/mL) of all 7 purified anti-human BTN2 mAbs in 50 μL of staining buffer (DPBS1X (Thermofisher scientific) 1% FBS, 1 mM EDTA (Thermofisher scientific)) during 30 minutes at 4° C. Equal concentrations of mouse IgG1 antibody (Miltenyi) were used as isotype control for staining. Then, cells were washed twice with 200 μL of staining buffer, and incubated with a 1:200 dilution of goat anti-mouse Ig-PE conjugated (Jackson Immunoresearch) in staining buffer for 30 min at 4° C. in the dark. Finally, cells were washed twice in staining buffer prior to fixation using BD Cytofix reagent (BD Bioscience) according to manufacturer's instructions. Mean fluorescence intensity (MFI) on PE channel within the CFP-positive population was assessed for each sample in a Cytoflex LX (Beckman Coulter), and analyzed with a FlowJo V10.4.2 software (FlowJo, LLC 2006-2018).

Assay [3] deals with T3, human BTN2A2 CFP(Nter)-fusion protein expressed on 293F BTN3/BTN2 KO cells (human, UniProt Q8WVV5 33-523).
T3 construct: also called pcDNA3-Zeo-BTN2A2-CFP; not shown: CFP fused at the N-terminus (CFP(Nter)-fusion)
T3 sequence: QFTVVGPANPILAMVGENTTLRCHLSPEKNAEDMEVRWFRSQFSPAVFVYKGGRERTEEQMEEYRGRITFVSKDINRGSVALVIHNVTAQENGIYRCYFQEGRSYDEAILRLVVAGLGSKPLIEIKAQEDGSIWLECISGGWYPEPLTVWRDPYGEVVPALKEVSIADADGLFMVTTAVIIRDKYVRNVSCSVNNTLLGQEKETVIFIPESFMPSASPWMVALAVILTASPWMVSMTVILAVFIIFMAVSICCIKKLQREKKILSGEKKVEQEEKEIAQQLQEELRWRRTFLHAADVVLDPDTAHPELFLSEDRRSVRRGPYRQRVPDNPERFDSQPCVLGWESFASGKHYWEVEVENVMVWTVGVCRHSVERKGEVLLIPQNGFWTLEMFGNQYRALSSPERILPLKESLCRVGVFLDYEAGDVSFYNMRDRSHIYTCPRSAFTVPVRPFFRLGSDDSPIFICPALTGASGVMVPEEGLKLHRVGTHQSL
The assay can be described thus: flow cytometry (PE MFI in CFP-positive cells) on 293F BTN3/BTN2 KO cells transfected with BTN2A2-CFP. Here is the method:
as §1, §2
(A flow cytometer gives signals particle by particle.)

The target in assay [4] is T2, human BTN2A1 CFP(Nter)-fusion protein …. The assay can be described thus: flow cytometry (PE MFI in CFP-positive cells) on 293F BTN3/BTN2 KO cells transfected with BTN2A1-CFP. The procedure:
as §1, §2

The target in assay [5] is T1, human BTN2A2 expressed on HEK293F cells …. Briefly: flow cytometry titration on HEK293F cells transfected with BTN2A2-Flag.
Assay [6] addresses T3, human BTN2A2 CFP(Nter)-fusion protein …. Briefly: flow cytometry on BTN2A2-transfected 293F BTN3/BTN2 KO cells (summary table, repeats the 7th table). The procedure:
as §1, §2

The target in assay [7] is T2, human BTN2A1 CFP(Nter)-fusion protein …. The assay can be described thus: flow cytometry on 293F BTN3/BTN2 KO cells transfected with BTN2A1-CFP. The procedure:
as §1
as §2, with “Finally, cells were washed twice in staining buffer prior to fixation using BD Cytofix reagent (BD Bioscience) according to manufacturer's instructions.” left out

The target of assay [8] is T1, human BTN2A2 expressed on HEK293F cells …. The assay can be described thus: flow cytometry on HEK293F cells transfected with BTN2A2-Flag. The procedure: FIG. 1: Binding of BTN2 mAbs on HEK293F cells. HEK293F cells were transfected with BTN2A2-Flag plasmid. At day 1 after transfection, BTN2A2 transfected HEK293F cells (A) and non-transfected HEK293F cells (B) were stained with purified mouse anti-human BTN2 mAbs for 20 min at 4° C. Monoclonal Anti-Flag antibody serves as positive control for transfection. After 2 washes, cells were incubated with a secondary goat anti-mouse IgG PE for 20 min at 4° C. and a marker for cell viability. Cells were acquired on a LSRFortessa (BD) and analyzed with FlowJo (TreeStar).

Assay [9] addresses T3, human BTN2A2 CFP(Nter)-fusion protein …. Briefly: flow cytometry on 293F BTN3/BTN2 KO cells transfected with BTN2A2-CFP. The procedure: as §1
as §2, with “Finally, cells were washed twice in staining buffer prior to fixation using BD Cytofix reagent (BD Bioscience) according to manufacturer's instructions.” left out

B1: mAb4 (mouse anti-human BTN2 mAb 7.48) (antibody, V domains shown)
VH: EVQLVESGGDLVKPGGSLKLSCAASGFTFSDFYMYWVRRTPEKRLEWVATISDGGSHTYYPDSVKGRFTISRDNAKNNLYLQMRSLKSEDTAMYYCGRDTTIITPYWGQGTLVTVSA
VL: QSVVTQESALTTSPGETVTLTCRSSTGAVTTSNYANWVQEKPDHLFTGLIGGTNNRAPGVPARFSGSLIGDKAALTITGAQTEDEAIYFCGLWYSNHWVFGGGTKLTVL
notes: Mouse IgG1 purified from hybridoma supernatant; also called CNCM I-5234
Broadly, the EC50 is the midpoint of the concentration-response curve. Lower therefore signals an effect from little substance. As for B1, the EC50 in [1] was 0.08 µg/mL; in assay [2] it was 0.02 µg/mL; in assay [3], 0.01 µg/mL; in assay [4], 0.02 µg/mL; in [5] it was 0.08 µg/mL; in [6], 0.01 µg/mL.

B2: mAb5 (mouse anti-human BTN2 mAb 8.15) (antibody, V domains shown)
VH: EVKLLESGGGLVQPGGSLKLSCAASGFDFSGYWMTWVRQAPGKGLEWIGEINPDSSTINYTPSLRDKFIISRDNAKNTLYLQMSKVRSEDTALYFCARGSYYPSYWGQGTLVTVSA
VL: DIVLTQSPASLAVSLGQRATISCRASKSVSSSGYSYMNWYQQKPGQPPKLLIYLASNLESGVPARFSGSGSGTDFTLNIHPVEDEDAATYYCQHSRELPHTFGGGTKLEIK
notes: Mouse IgG1 purified from hybridoma supernatant; also called CNCM I-5235
With B2, the EC50 in [1] came to 0.1 µg/mL; in assay [2], 0.08 µg/mL; in assay [3] it was 0.5 µg/mL; in assay [4], 0.08 µg/mL; in assay [5] it was 0.1 µg/mL; in [6] it was 0.5 µg/mL.

B3: mAb6 (mouse anti-human BTN2 mAb 8.16) (antibody, V domains shown)
VH: EVKLLESGGGLVQPGGSLKLSCAASGFDFSGYWMTWVRQAPGKGLEWIGEINPDSSTINYTPSLRDKFIISRDNAKNTLYLQMSKVRSEDTALYFCARGSYYPSYWGQGTLVTVSA
VL: DIVLTQSPASLAVSLGQRATISCRASKSVSSSGYSYMNWYQQKPGQPPKLLIYLASNLESGVPARFSGSGSGTDFTLNIHPVEDEDAATYYCQHSRELPHTFGGGTKLEIK
notes: Mouse IgG1 purified from hybridoma supernatant; also called CNCM I-5236
Turning to B3, the EC50 was found to be 0.11 µg/mL in assay [1]; 0.08 µg/mL in assay [2]; 2.4 µg/mL in [3]; 0.08 µg/mL in [4]; 0.11 µg/mL in assay [5]; 2.4 µg/mL in [6].

B4: mAb1 (mouse anti-human BTN2 mAb 4.15) (antibody, V domains shown)
VH: QVQLQQSGAELVKPGASVKLSCKASGYIFTSYDINWVRQRPEQGLEWIGWIFPGDDSIIQNEKFKGKATLTTDKSSSTVYMQLSRLTSEDSAVYFCARLGPLRGFTYWGQGTLVTVSA
VL: DIVLTQSPASLAVSLGQRATISCRASESVDRYGSSFMHWYQQKPGQPPKLLIYRASNLESGIPARFSGSGSRTDFTLTINPVEADDVATYYCQQSNEDPWTFGGGTKLEIK
notes: Mouse IgG1 purified from hybridoma supernatant; also called CNCM I-5231
Turning to B4, the EC50 in assay [1] was determined as 0.07 µg/mL; in assay [2] it was 0.06 µg/mL; in assay [3], 0.01 µg/mL; in [4], 0.06 µg/mL; in assay [5], 0.07 µg/mL; in assay [6] it was 0.01 µg/mL.

B5: mAb3 (mouse anti-human BTN2 mAb 7.28) (antibody, V domains shown)
VH: QVHLQQSGAELMKPGASVKISCKATGYTFSSYWIEWVKQRPGHGREWIGEILPGSGSTKYNEKFRGKATFAADTSSNTAYVQLSSLTSEDSAVYYCARLKGYYGGGAMDYWGQGTSVTVSS
VL: DVQITQSPSYLAASPGETITINCRASKSISKYLAWYQEKPGKTNELLIYSGSTLQSGIPSRFSGSGSGTDFTLTISSLEPEDFAMYYCQQHNEYPWTFGGGTKLEIK
notes: Mouse IgG1 purified from hybridoma supernatant; also called CNCM I-5233
For the molecule B5, the 50% effective concentration (EC50) in assay [1] was 31.3 µg/mL; in assay [2], 0.02 µg/mL; in assay [3] it was 11.8 µg/mL; in [4], 0.02 µg/mL; in [5], 31.3 µg/mL; in assay [6] it was 11.8 µg/mL.

B6: mAb2 (mouse anti-human BTN2 mAb 5.28) (antibody, V domains shown)
VH: QIQLVQSGPELKKPGETVKISCKASGYTFTDYSMNWVKQAPGKGLKWVGRINTETGEPTYADDFKGRFAFSLETSASTAYLQIKNLKNEDTATYFCVRDYAKRWGQGTSVTVSS
VL: DIVMTQSHKFMSTSVGDRVSITCKASQDVITAVAWYQQKPGQSPKLLIYSTSYRYTGVPDRFTGSGSGTDFTFTISSVQAEDLAVYYCLQHYTTPWTFGGGTKLEIK
notes: Mouse IgG1 purified from hybridoma supernatant; also called CNCM I-5232
On to B6, for which the 50% effective concentration (EC50) in assay [1] is 0.07 µg/mL; in assay [2], 0.04 µg/mL; in [3] it was 0.01 µg/mL; in [4] it was 0.04 µg/mL; in assay [5], 0.07 µg/mL; in assay [6], 0.01 µg/mL.

B7: mAb7 (mAb 8.33, comparative control antibody) (antibody, V domains shown)
VH: DVQLQESGPGLVKPSQSLSLTCSVTGYSITSGYYWNWIRQFPGNKLEWMGYISYDGNNNYNPSLKNRISITRDTSKNQFFLKLNSVTTEDTATYYCASPLYDGYYWYFDVWGAGTTVTVSS
VL: ETTVTQSPASLSLAIGEKVTIRCITSTDIDDDMNWYQQKPGEPPKLLISEANTLRPGVPSRFSSSGRGTDFVFTIENMLSEDVADYYCLQSDNLPYTFGGGTKLEIK
notes: Mouse IgG1 purified from hybridoma supernatant; also called CNCM I-5237
Consider B7, for which the binding result in assay [7], in [8] and in assay [9] was “no binding” throughout.
